Measurements: the Immune Epitope Database (IEDB)

Key:
Assay in all cases: IEDB peptide-MHC binding, purified MHC/competitive/fluorescence; ≥ and ≤ were set here for values at or beyond the usual limits of such assays
Conditions in all cases: source organism: Homo sapiens
[1] = biological target: HLA-A*68:02
[2] = biological target: HLA-A*29:02
[3] = biological target: HLA-A*31:01
[4] = biological target: HLA-A*25:01
[5] = biological target: HLA-B*37:01
[6] = biological target: HLA-A*24:02
[7] = biological target: HLA-B*53:01
[8] = biological target: HLA-B*35:01
[9] = biological target: HLA-B*08:01
[10] = biological target: HLA-A*03:01
[11] = biological target: HLA-A*01:01
[12] = biological target: HLA-B*58:01
[13] = biological target: HLA-B*07:02
[14] = biological target: HLA-B*51:01
[15] = biological target: HLA-B*14:02
[16] = biological target: HLA-B*40:02
[17] = biological target: HLA-A*11:01
[18] = biological target: HLA-B*18:01
[19] = biological target: HLA-A*02:01
[20] = biological target: HLA-B*44:03

LPSCPTNFCIF
IC50 [1]: ≥ 20 µM | IC50 [2]: ≥ 20 µM | IC50 [3]: ≥ 20 µM | IC50 [4]: ≥ 20 µM | IC50 [5]: ≥ 20 µM | IC50 [6]: 1.11 µM | IC50 [7]: 0.851 µM | IC50 [8]: 0.0477 µM | IC50 [9]: ≥ 20 µM | IC50 [10]: ≥ 20 µM | IC50 [11]: ≥ 20 µM | IC50 [12]: ≥ 20 µM | IC50 [13]: 0.562 µM | IC50 [14]: ≥ 20 µM | IC50 [15]: ≥ 20 µM | IC50 [16]: ≥ 20 µM | IC50 [17]: ≥ 20 µM | IC50 [18]: ≥ 20 µM | IC50 [19]: ≥ 20 µM | IC50 [20]: ≥ 20 µM
